The values below come from patent publication US20150344570A1 (published 2015).

B1: GpH7-B3 variant S298_10E/GpL16-k0 (antibody, human IgG1, kappa)
heavy: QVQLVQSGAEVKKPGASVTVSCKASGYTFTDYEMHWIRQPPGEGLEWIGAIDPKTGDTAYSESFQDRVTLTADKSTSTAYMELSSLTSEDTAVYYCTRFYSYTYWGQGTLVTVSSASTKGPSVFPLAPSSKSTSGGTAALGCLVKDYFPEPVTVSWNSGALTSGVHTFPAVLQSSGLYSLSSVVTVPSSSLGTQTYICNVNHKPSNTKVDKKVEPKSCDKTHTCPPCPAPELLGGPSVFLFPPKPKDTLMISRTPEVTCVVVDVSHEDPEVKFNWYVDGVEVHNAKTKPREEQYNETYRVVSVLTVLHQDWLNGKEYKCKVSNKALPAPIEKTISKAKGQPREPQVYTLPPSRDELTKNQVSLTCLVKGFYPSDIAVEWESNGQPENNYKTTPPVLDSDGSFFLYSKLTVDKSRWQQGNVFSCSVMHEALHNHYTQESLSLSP
light: DIVMTQSPLSLPVTPGEPASISCQASESLVHSNRNTYLHWYLQKPGQSPQLLIYKVSNRFSGVPDRFSGSGSGTDFTLKISRVEAEDVGVYYCSQNTHVPPTFGQGTKVEIERTVAAPSVFIFPPSDEQLKSGTASVVCLLNNFYPREAKVQWKVDNALQSGNSQESVTEQDSKDSTYSLSSTLTLSKADYEKHKVYACEVTHQGLSSPVTKSFNRGEC
notes: also called Ho Ab S298_10E
B2: GpH7-B3 variant S298_19Q/GpL16-k0 (antibody, human IgG1, kappa)
heavy: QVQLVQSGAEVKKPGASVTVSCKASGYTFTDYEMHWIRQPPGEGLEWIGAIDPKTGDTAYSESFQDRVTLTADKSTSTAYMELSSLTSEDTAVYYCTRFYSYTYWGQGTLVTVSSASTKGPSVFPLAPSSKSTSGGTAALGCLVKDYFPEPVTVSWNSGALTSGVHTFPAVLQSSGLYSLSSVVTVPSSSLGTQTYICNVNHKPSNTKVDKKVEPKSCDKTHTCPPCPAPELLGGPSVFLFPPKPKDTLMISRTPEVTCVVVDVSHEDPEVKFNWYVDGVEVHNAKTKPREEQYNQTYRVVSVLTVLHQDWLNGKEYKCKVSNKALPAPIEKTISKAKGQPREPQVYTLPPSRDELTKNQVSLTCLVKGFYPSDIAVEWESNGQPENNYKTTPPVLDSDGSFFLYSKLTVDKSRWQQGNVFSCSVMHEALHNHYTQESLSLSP
light: DIVMTQSPLSLPVTPGEPASISCQASESLVHSNRNTYLHWYLQKPGQSPQLLIYKVSNRFSGVPDRFSGSGSGTDFTLKISRVEAEDVGVYYCSQNTHVPPTFGQGTKVEIERTVAAPSVFIFPPSDEQLKSGTASVVCLLNNFYPREAKVQWKVDNALQSGNSQESVTEQDSKDSTYSLSSTLTLSKADYEKHKVYACEVTHQGLSSPVTKSFNRGEC
notes: also called Ho Ab S298_19Q
B3: GpH7-B3 variant S298_20W/GpL16-k0 (antibody, human IgG1, kappa)
heavy: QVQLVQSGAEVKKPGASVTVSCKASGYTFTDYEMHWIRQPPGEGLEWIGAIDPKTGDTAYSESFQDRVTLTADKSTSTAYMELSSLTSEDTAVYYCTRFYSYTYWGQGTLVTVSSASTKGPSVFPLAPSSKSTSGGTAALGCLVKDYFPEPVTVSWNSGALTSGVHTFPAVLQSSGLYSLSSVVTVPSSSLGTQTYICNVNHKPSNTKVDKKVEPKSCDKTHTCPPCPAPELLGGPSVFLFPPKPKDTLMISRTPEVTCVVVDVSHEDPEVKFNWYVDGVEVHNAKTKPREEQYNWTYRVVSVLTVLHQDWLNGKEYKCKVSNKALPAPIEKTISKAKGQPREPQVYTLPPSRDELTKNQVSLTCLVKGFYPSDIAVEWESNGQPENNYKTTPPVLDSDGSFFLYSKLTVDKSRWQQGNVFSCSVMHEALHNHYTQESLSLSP
light: DIVMTQSPLSLPVTPGEPASISCQASESLVHSNRNTYLHWYLQKPGQSPQLLIYKVSNRFSGVPDRFSGSGSGTDFTLKISRVEAEDVGVYYCSQNTHVPPTFGQGTKVEIERTVAAPSVFIFPPSDEQLKSGTASVVCLLNNFYPREAKVQWKVDNALQSGNSQESVTEQDSKDSTYSLSSTLTLSKADYEKHKVYACEVTHQGLSSPVTKSFNRGEC
notes: also called Ho Ab S298_20W
B4: GpH7-B3 variant S298_12R/GpL16-k0 (antibody, human IgG1, kappa)
heavy: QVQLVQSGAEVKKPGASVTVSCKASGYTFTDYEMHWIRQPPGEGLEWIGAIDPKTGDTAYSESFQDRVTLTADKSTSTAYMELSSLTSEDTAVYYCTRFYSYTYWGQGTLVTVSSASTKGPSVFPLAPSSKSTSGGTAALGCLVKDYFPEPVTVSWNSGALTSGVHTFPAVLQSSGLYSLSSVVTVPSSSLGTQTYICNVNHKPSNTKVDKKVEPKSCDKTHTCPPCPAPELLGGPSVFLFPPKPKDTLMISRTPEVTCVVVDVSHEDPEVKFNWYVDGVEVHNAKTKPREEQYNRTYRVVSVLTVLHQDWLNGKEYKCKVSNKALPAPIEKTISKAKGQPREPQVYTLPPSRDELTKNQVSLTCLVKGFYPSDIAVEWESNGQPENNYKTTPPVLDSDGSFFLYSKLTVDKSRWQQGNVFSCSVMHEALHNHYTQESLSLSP
light: DIVMTQSPLSLPVTPGEPASISCQASESLVHSNRNTYLHWYLQKPGQSPQLLIYKVSNRFSGVPDRFSGSGSGTDFTLKISRVEAEDVGVYYCSQNTHVPPTFGQGTKVEIERTVAAPSVFIFPPSDEQLKSGTASVVCLLNNFYPREAKVQWKVDNALQSGNSQESVTEQDSKDSTYSLSSTLTLSKADYEKHKVYACEVTHQGLSSPVTKSFNRGEC
notes: also called Ho Ab S298_12R
B5: GpH7-B3 variant S298_14T/GpL16-k0 (antibody, human IgG1, kappa)
heavy: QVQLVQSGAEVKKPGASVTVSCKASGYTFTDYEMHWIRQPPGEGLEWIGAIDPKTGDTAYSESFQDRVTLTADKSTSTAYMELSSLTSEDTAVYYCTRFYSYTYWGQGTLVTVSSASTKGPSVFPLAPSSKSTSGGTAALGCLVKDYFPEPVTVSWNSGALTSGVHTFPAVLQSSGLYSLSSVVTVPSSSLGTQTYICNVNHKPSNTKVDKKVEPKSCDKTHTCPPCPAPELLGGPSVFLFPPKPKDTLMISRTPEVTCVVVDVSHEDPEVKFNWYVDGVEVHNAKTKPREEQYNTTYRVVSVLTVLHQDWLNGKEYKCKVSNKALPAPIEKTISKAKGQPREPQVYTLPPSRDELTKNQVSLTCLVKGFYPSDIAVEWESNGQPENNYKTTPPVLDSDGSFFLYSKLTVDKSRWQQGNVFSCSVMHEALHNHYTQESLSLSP
light: DIVMTQSPLSLPVTPGEPASISCQASESLVHSNRNTYLHWYLQKPGQSPQLLIYKVSNRFSGVPDRFSGSGSGTDFTLKISRVEAEDVGVYYCSQNTHVPPTFGQGTKVEIERTVAAPSVFIFPPSDEQLKSGTASVVCLLNNFYPREAKVQWKVDNALQSGNSQESVTEQDSKDSTYSLSSTLTLSKADYEKHKVYACEVTHQGLSSPVTKSFNRGEC
notes: also called Ho Ab S298_14T
B6: GpH7-B3 variant S298_18N/GpL16-k0 (antibody, human IgG1, kappa)
heavy: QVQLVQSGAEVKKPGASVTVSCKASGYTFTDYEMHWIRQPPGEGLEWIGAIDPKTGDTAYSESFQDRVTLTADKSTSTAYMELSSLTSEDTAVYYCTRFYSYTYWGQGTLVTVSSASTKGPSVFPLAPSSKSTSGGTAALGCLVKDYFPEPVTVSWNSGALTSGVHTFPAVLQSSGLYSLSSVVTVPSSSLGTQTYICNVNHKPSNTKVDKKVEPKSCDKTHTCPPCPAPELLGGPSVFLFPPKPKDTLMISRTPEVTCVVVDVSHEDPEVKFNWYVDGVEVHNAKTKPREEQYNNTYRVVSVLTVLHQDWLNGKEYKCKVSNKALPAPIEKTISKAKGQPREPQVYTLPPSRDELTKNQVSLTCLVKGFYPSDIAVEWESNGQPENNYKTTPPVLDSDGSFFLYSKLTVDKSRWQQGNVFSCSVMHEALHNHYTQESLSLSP
light: DIVMTQSPLSLPVTPGEPASISCQASESLVHSNRNTYLHWYLQKPGQSPQLLIYKVSNRFSGVPDRFSGSGSGTDFTLKISRVEAEDVGVYYCSQNTHVPPTFGQGTKVEIERTVAAPSVFIFPPSDEQLKSGTASVVCLLNNFYPREAKVQWKVDNALQSGNSQESVTEQDSKDSTYSLSSTLTLSKADYEKHKVYACEVTHQGLSSPVTKSFNRGEC
notes: also called Ho Ab S298_18N
B7: GpH7-B3 variant S298_16H/GpL16-k0 (antibody, human IgG1, kappa)
heavy: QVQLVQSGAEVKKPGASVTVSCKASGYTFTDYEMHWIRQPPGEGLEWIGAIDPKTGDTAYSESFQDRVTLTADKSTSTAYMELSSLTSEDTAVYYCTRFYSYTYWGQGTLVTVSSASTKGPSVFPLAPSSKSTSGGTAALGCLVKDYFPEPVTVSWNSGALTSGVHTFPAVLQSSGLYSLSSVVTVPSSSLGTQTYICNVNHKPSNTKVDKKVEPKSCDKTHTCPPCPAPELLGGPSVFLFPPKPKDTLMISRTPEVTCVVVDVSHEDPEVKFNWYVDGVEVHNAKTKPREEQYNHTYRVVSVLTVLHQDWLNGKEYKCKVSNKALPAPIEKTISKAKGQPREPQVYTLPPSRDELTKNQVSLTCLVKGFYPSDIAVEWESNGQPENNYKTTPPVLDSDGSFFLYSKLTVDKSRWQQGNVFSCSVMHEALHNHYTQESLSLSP
light: DIVMTQSPLSLPVTPGEPASISCQASESLVHSNRNTYLHWYLQKPGQSPQLLIYKVSNRFSGVPDRFSGSGSGTDFTLKISRVEAEDVGVYYCSQNTHVPPTFGQGTKVEIERTVAAPSVFIFPPSDEQLKSGTASVVCLLNNFYPREAKVQWKVDNALQSGNSQESVTEQDSKDSTYSLSSTLTLSKADYEKHKVYACEVTHQGLSSPVTKSFNRGEC
notes: also called Ho Ab S298_16H
B8: GpH7-B3 variant S298_15Y/GpL16-k0 (antibody, human IgG1, kappa)
heavy: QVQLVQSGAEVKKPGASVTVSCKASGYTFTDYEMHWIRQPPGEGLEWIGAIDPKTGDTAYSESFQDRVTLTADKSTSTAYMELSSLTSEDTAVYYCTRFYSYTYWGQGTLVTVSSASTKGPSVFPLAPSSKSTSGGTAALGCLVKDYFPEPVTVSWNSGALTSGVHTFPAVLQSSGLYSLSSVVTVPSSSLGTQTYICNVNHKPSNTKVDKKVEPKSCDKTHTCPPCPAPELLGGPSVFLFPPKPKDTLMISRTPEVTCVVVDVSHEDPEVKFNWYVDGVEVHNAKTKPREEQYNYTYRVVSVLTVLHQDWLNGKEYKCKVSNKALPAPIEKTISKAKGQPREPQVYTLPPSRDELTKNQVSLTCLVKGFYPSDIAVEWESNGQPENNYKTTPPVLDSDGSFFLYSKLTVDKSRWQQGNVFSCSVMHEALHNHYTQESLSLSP
light: DIVMTQSPLSLPVTPGEPASISCQASESLVHSNRNTYLHWYLQKPGQSPQLLIYKVSNRFSGVPDRFSGSGSGTDFTLKISRVEAEDVGVYYCSQNTHVPPTFGQGTKVEIERTVAAPSVFIFPPSDEQLKSGTASVVCLLNNFYPREAKVQWKVDNALQSGNSQESVTEQDSKDSTYSLSSTLTLSKADYEKHKVYACEVTHQGLSSPVTKSFNRGEC
notes: also called Ho Ab S298_15Y

The test deals with T1, FcγRIa (human, UniProt P12314 16-292).
T1 construct: extracellular domain; Soluble extracellular domain expressed in FreeStyle293 cells, used as analyte in Biacore; also called FcgRI; 1a; not shown: His tag attached to the C terminus
T1 sequence (P12314 16-292): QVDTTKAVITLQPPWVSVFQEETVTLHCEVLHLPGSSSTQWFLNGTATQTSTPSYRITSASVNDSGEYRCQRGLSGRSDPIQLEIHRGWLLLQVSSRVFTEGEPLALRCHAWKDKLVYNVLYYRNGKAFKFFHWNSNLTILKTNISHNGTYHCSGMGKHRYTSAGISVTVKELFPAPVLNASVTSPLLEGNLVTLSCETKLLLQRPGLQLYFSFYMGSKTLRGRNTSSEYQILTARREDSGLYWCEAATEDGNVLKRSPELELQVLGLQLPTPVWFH
Kind of test: SPR (Biacore); Ho Ab vs HoCon Ab GpH7-B3/GpL16-k0. As to the method: Analysis of interaction between objective antibody and the FcγR was carried out using Biacore T100 (GE Healthcare). HBS-EP+ (GE Healthcare) was used as the running buffer, and the measurement temperature was set to 25° C. Chips produced by immobilizing the antigen peptide by the amine coupling method to a Series S Sencor Chip CM5 (GE Healthcare), or alternatively, chips produced by allowing preliminarily biotinylated antigen peptides to interact with and immobilize onto a Series S Sensor Chip SA (certified) (GE Healthcare) were used. Antibodies of interest were captured onto an antigen peptide-immobilized chip, and allowed to interact to each FcγR diluted with running buffer. To regenerate and repeatedly use the chip, the antibodies captured on the chip were washed off by reacting 10 mM glycine-HCl, pH 1.5.
(Surface plasmon resonance follows binding to a sensor surface in real time, without labels.)
With B1, the Ho/Con_1a is 106 relative binding, control = 100.

As for B2, the Ho/Con_1a was 105 relative binding, control = 100.

For the molecule B3, the Ho/Con_1a is 71.5 relative binding, control = 100.

For B4, the Ho/Con_1a was 94.5 relative binding, control = 100.

Consider B5, for which the Ho/Con_1a is 106 relative binding, control = 100.

On to B6, for which the Ho/Con_1a is 104 relative binding, control = 100.

Consider B7, for which the Ho/Con_1a was 107 relative binding, control = 100.

For the molecule B8, the Ho/Con_1a is 103 relative binding, control = 100.
